Measured values: patent US20210107983A1 (Boehringer Ingelheim, published 2021)

Assays:
[1] = molecular target: T1, human B7H6 on HCT-15 cells (human, UniProt Q68D85 25-454); test: cell-based or functional assay
T1 sequence (looked up): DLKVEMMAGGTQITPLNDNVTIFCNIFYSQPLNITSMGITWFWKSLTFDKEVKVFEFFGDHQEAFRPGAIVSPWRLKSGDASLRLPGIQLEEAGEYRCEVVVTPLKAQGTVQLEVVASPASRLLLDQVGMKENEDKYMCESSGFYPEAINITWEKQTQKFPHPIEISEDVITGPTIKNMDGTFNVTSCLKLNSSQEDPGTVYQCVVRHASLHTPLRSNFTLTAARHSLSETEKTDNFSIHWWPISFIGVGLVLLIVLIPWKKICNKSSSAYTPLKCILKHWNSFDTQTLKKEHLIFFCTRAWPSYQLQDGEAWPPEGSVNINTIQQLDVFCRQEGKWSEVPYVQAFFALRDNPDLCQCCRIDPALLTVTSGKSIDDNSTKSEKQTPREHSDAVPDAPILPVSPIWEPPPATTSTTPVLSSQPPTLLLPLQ

[2] = molecular target: T2, Fc-His-tagged human B7H6 ECD (human); test: ELISA, plate coated with Fc-His-tagged human B7H6 ECD, anti-human IgG F(ab')2-peroxidase, TMB
T2 construct: also called huB7H6-ECD-Fc-His; recombinant human B7H6 ECD
Protocol: (§1) To assess binding of B7H6/CD3 binding proteins to recombinant human Fc-His-tagged B7H6 ECD and human Fc-His-tagged Ala-mutated B7H6 extracellular proteins as described in Example 3, MediSorp™ plates (Nunc, 467320) were coated with […] recombinant proteins overnight at 4° C. The next day, plates were blocked with 0.5% bovine serum albumin (BSA) in phosphate buffered saline (PBS) for 1 hour at room temperature (RT). Subsequently plates were washed with […] containing 0.05% TWEEN®20 viscous liquid and B7H6/CD3 binding proteins were incubated at concentrations ranging from 0.00001 to 10 μg/ml. After an additional washing step, bound B7H6/CD3 binding proteins were detected by a peroxidase conjugated goat anti-human IgG F(ab′)₂-specific secondary antibody (Jackson Immunoresearch) and visualized by TMB substrate solution (Bender Med Systems).

[3] = molecular target: T1, human B7H6 on HCT-15 cells; test: flow cytometry on HCT-15 cells, PE anti-human secondary antibody
Protocol: Binding of B7H6/CD3 binding proteins to HCT-15, a human (colo-rectal cancer) CRC cell line was tested by flow cytometry. In a previous experiment, it has been confirmed that HCT-15 cells expresses B7-H6 on the RNA levels as well as the protein level with approximately 8,000 B7-H6 receptors on the cell surface (data not shown). B7H6/CD3 binding proteins were produced, as described in Example 2. HCT-15 cells were stained with increasing concentrations of two-step purified B7H6/CD3 binding proteins in FACS buffer (PBS/0.5% BSA/0.05% sodium azide). Bound molecules were detected with PE-conjugated anti-human secondary antibody (Sigma-Aldrich, #P8047).

[4] = molecular target: T3, Fc-His-tagged human Ala-mutated B7H6 ECD (human); test: ELISA, plate coated with Fc-His-tagged human Ala-mutated B7H6 ECD, anti-human IgG F(ab')2-peroxidase, TMB
T3 construct: also called huB7H6-Ala-ECD
Protocol: as §1

- EC50 (read off the curve) [2]: ~0.05 µg/mL
- EC50 (read off the curve) [3]: ~0.4 nM
- binding result [4]: no binding (tested: 10 µg/ml)
B1: B7H6#8/CD3#1 (bispecific antibody, human IgG1, kappa, lambda, L234A L235A)
chain 1: DIVMTQSPLSLPVTPGEPASISCRSSQSLLYNNRYNYLDWYLQKPGQSPEVLIYLGSNRASGVPDRFSGSGSGTDFTLKISRVEAEDFGVYYCMQTLQIPITFGQGTRLEIKRTVAAPSVFIFPPSDEQLKSGTASVVCLLNNFYPREAKVQWKVDNALQSGNSQESVTEQDSKDSTYSLSSTLTLSKADYEKHKVYACEVTHQGLSSPVTKSFNRGECGGGGSEGKSSGSGSESKSTEGKSSGSGSESKSTGGGGSQVQVVQSGAEVKKPGSSVKVSCKGSGDTLNSYGISWMRQAPGQGLEWMGGIIPIFDTTKYAQKFQGRVTITADKSTTTVYMELSSLRFEDTAVYYCARERGYRFSEDYYFYYGMDVWGQGTTVTVSSASTKGPSVFPLAPSSKSTSGGTAALGCLVKDYFPEPVTVSWNSGALTSGVHTFPAVLQSSGLYSLSSVVTVPSSSLGTQTYICNVNHKPSNTKVDKRVEPKSCDKTHTCPPCPAPEAAGGPSVFLFPPKPKDTLMISRTPEVTCVVVDVSHEDPEVKFNWYVDGVEVHNAKTKPREEQYNSTYRVVSVLTVLHQDWLNGKEYKCKVSNKALPAPIEKTISKAKGQPREPQVYTLPPSREEMTKNQVSLWCLVKGFYPSDIAVEWESNGQPENNYKTTPPVLDSDGSFFLYSKLTVDKSRWQQGNVFSCSVMHEALHNHYTQKSLSLSPG
chain 2: EAVVTQEPSLTVSPGGTVTLTCRSSTGAVTTSNYANWVQEKPGQLPRGLIGGTNKRAPWVPARFSGSLLGGKAALTLSGAQPEDEAEYFCALWYSNLWVFGGGTKLTVLGQPKAAPSVTLFPPSSEELQANKATLVCLISDFYPGAVKVAWKADGSPVNTGVETTTPSKQSNNKYAASSYLSLTPEQWKSHRSYSCQVTHEGSTVEKTVAPAECSGGGGSEGKSSGSGSESKSTEGKSSGSGSESKSTGGGGSEVQLVESGGGLVQPGGSLKLSCAASGFTFNTYAMNWVRQAPGKGLEWVARIRSKYNNYATYYADSVKDRFTISRDDSKNTAYLQMNNLKTEDTAVYYCVRHGNFGNSYVSWFAYWGQGTLVTVSAASTKGPSVFPLAPSSKSTSGGTAALGCLVKDYFPEPVTVSWNSGALTSGVHTFPAVLQSSGLYSLSSVVTVPSSSLGTQTYICNVNHKPSNTKVDKRVEPKSCDKTHTCPPCPAPEAAGGPSVFLFPPKPKDTLMISRTPEVTCVVVDVSHEDPEVKFNWYVDGVEVHNAKTKPREEQYNSTYRVVSVLTVLHQDWLNGKEYKCKVSNKALPAPIEKTISKAKGQPREPQVYTLPPSREEMTKNQVSLSCAVKGFYPSDIAVEWESNGQPENNYKTTPPVLDSDGSFFLVSKLTVDKSRWQQGNVFSCSVMHEALHNRFTQKSLSLSPG
notes: scFab-Fc heterodimer, one B7H6 chain and one CD3 chain
- EC50 [nM], 72 hour cytotoxicity assay, non-stimulated T-cells (Donor #1) as effector cells, HCT-15 cells as target cells [1]: 0.62 nM
